Results published in FireProtDB (doi:10.1002/pro.3128).

Conditions: Homo sapiens, pH 7.3, 25 °C, Sodium citrate 5mM, KF 50mM, transition: 2, reversible: no, whole UniProt chain shown

B1: Pleckstrin homology domain-containing family F member 2 wild type, Q9H8W4 (protein)
chain: MVDRLANSEANTRRISIVENCFGAAGQPLTIPGRVLIGEGVLTKLCRKKPKARQFFLFNDILVYGNIVIQKKKYNKQHIIPLENVTIDSIKDEGDLRNGWLIKTPTKSFAVYAATATEKSEWMNHINKCVTDLLSKSGKTPSNEHAAVWVPDSEATVCMRCQKAKFTPVNRRHHCRKCGFVVCGPCSEKRFLLPSQSSKPVRICDFCYDLLSAGDMATCQPARSDSYSQSLKSPLNDMSDDDDDDDSSD
In the case of B1, the denaturant m value (GdnHCl, CD) is reported as 2.48 kcal/mol/M, the “denaturant midpoint (higher = more stable)” value (“denaturant midpoint” for short) (GdnHCl, CD) is reported as 1.51 M and the unfolding free energy (GdnHCl, CD) is reported as 3.75 kcal/mol. For the same protein, the denaturant m value (GdnHCl, Fluorescence) was 2.93 kcal/mol/M, the “denaturant midpoint” value (GdnHCl, Fluorescence) was 1.3 M and the unfolding free energy (GdnHCl, Fluorescence) was 3.8 kcal/mol. The denaturant m value (Urea, CD) was 1.16 kcal/mol/M, the “denaturant midpoint” value (Urea, CD) was 3.45 M and the unfolding free energy (Urea, CD) was 4 kcal/mol. For the same protein, the denaturant m value (Urea, Fluorescence) was 1.19 kcal/mol/M, the “denaturant midpoint” value (Urea, Fluorescence) was 3.42 M and the unfolding free energy (Urea, Fluorescence) was 4.07 kcal/mol.
